Measurements reported in PMC4961411.
“And” between values parts separate entries of the source, which are not always exact repeats. Equal entries are not always repeated.

Experiments:
[1] = molecular target: 6xHis-YlfA 128–425 (Legionella pneumophila); test: SDS-PAGE and immunoblot of gel filtration peak fractions, not boiled
[2] = molecular target: 6xHis-YlfA 128–425 (Legionella pneumophila); test: SDS-PAGE and immunoblot of gel filtration peak fractions, boiled
[3] = molecular target: 6xHis-YlfB 131–405 (Legionella pneumophila); test: SDS-PAGE and immunoblot of gel filtration peak fractions, not boiled
[4] = molecular target: 6xHis-YlfB 131–405 (Legionella pneumophila); test: SDS-PAGE and immunoblot of gel filtration peak fractions, boiled

## 6xHis-YlfA 128–425 (domain or fragment)
[1]
  stoichiometry N: 2 and 3
[2]
  stoichiometry N: 2

## 6xHis-YlfB 131–405 (domain or fragment)
[3]
  stoichiometry N: 2 and 3
[4]
  stoichiometry N: 2
